This is an account of results in patent US20050118668A1 (WISCONSIN ALUMNI RESEARCH FOUNDATION, published 2005).

The assay concerns the target T1, T4moD (UniProt Q00459 2-103).
T1 construct: also called 11.6 kDa effector protein of the toluene-4-monooxygenase complex
T1 sequence: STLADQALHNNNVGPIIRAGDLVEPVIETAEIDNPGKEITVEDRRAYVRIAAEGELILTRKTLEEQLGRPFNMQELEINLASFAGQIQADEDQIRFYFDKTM
In words: fluorescence anisotropy titration of 0.97 nM apo-fACP with T4moD. In general terms: In fluorescence polarisation assays a small probe gives low polarisation when free and higher when bound to something large.

B1: apo-fACP (other)
chain: STIEERVKKIIGEQLGVKQEEVTNNASFVEDLGADSLDTVELVMALEEEFDTEIPDEEAEKITTVQAAIDYINGHQA
notes: mature; also called fACP (apo form, lacking phosphopantetheine)
With B1, the binding result is given as “no binding”.
